Results taken from US11649460B2, “DNA aptamers, method for inhibiting human galectin-1 and method of treating a mammal in need thereof” (priority 2020, dated 2023).

Legend:
[1] = system: OVCAR-3 human ovarian adenocarcinoma cell line; assay: SRB cell proliferation (cytotoxicity) assay, OVCAR-3
Excerpt: (§1) The XLSTAT software was used to determine the IC50, TGI and LC50 values using the four-parameter logistic curve equation.

[2] = target: T1, native human galectin-1 (hGal1) (Homo sapiens, UniProt P09382); assay: Thermofluor thermal shift assay (TSA), native galectin-1; assay type: binding; conditions: 5 μM protein
T1 construct: 42; made in house; host or cells: E. coli strain M-15
T1 sequence (P09382 2-135): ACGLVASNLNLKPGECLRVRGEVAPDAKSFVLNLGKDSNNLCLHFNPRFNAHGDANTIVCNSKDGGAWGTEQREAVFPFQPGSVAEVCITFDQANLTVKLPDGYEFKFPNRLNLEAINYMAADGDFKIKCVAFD
Outline: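 Purified native or alkylated hGal1 (5 μM) was incubated 30 min with increasing aptamer SEQ ID NO.: 4 concentrations in PBS 1× with 5× SYPRO Orange. Samples were heated 25–95 °C at 1 °C/min, and melting temperature was derived from the fluorescence denaturation curves.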

[3] = system: NHF human foreskin skin fibroblasts; assay: in vitro
Excerpt: as §1

alkylated galectin-1 = assay: Thermofluor thermal shift assay (TSA), alkylated galectin-1; assay type: binding, human; conditions: 5 μM protein
alkylated galectin-1, sequence (P09382 2-135): as above
Experimental: In an attempt to screen among the selected aptamers that better interact with hGal1, differential scanning fluorimetry (Termofluor) was used to characterize their binding to its target. Among all the selected aptamers, SEQ ID NO.: 4 seemed to have a more intense effect on hGal1 thermoshift and so was chosen for further analysis. The selected aptamer had its interaction evaluated with native and alkylated galectin-1. […] The respective thermal displacements were evaluated as a function of an increasing concentration of SEQ ID NO.: 4 (FIG. 1).
Thermofluor experiments were performed on an Mx3005 RT-PCR (Agilent Technologies) using the SYPRO® Orange dye (492/610 nm) (Invitrogen) as fluorescent probe. The purified (native and alkylated) protein samples were incubated for 30 min with increasing concentration of the molecules of interest, centrifuged, and submitted to the thermal denaturation assay, totalizing four distinct experiments. In a 96-well plate (Agilent Technologies) 20 μl of the reaction containing 5 μM of each protein in buffer PBS 1× and 5× SYPRO® Orange were heated from 25° C. to 95° C. at a rate of 1° C./min. The experimental result was processed as in the protocol previously described and the melting temperature was obtained using GraphPad Prism software (www.graphpad.com).

B1: CTGACACAGCAGGTTGGTGCCAACTAACACCATAAGAATACCCCGCTCCAAATAAGCCCACACGTAAACCCGAGTCGAGCAATCTCGAAAT (nucleic acid)
DNA: CTGACACAGCAGGTTGGTGCCAACTAACACCATAAGAATACCCCGCTCCAAATAAGCCCACACGTAAACCCGAGTCGAGCAATCTCGAAAT
modifications: chemistry not given here
notes: DNA aptamer that recognizes human galectin-1
For B1, the “Relative viability (%) of test items” value ([1]; 0.781 µM) was 99.6%, the “Relative viability (%) of test items” value ([1]; 1.562 µM) was 93.9% and the “Relative viability (%) of test items” value ([1]; 3.125 µM) was 89.4%. For the same molecule, the “Relative viability (%) of test items” value ([1]; 6.25 µM) was 67.2%, the “Relative viability (%) of test items” value ([1]; 25 µM) was 37.7% and the “Relative viability (%) of test items” value ([1]; 50 µM) was −14.6%. The “Relative viability (%) of test items” value ([1]; 100 µM) was −68.1%, the “TGI: Concentration for total inhibition of cell growth” value ([1]; OVCAR-3) was 41.931 µM and the IC50 ([1]; read-out: IC50: Concentration to inhibit 50% of cell growth, OVCAR-3) was 14.2 µM. The CC50 ([1]; read-out: LC50: Concentration for 50% cell death, OVCAR-3) was 82.4 µM, the “variation of denaturation temperature (Tm) of native hGal1” value [2] was “greater variation” and the “variation of denaturation temperature (Tm) of native hGal1” value ([2]; listed as SEQ ID NO.: 4) was “marked decrease in Tm”. The “Relative viability (%) of test items” value ([3]; 0.781 µM) was 95.3%, the “Relative viability (%) of test items” value ([3]; 1.562 µM) was 94.2% and the “Relative viability (%) of test items” value ([3]; 3.125 µM) was 98.4%. The “Relative viability (%) of test items” value ([3]; 6.25 µM) was 100.7%, the “Relative viability (%) of test items” value ([3]; 12.5 µM) was 106.6% and the “Relative viability (%) of test items” value ([3]; 25 µM) was 73.4%. The “Relative viability (%) of test items” value ([3]; 50 µM) was 19.8%, the “Relative viability (%) of test items” value ([3]; 100 µM) was −25.4% and the “TGI: Concentration for total inhibition of cell growth” value ([3]; NHF) was 63.101 µM. The IC50 ([3]; read-out: IC50: Concentration to inhibit 50% of cell growth, NHF) was 35.6 µM and the “temperature variation (Tm) of alkylated galectin-1” value (alkylated galectin-1) was “not significant”.
